# Experimental data taken from doi:10.1101/2025.08.03.668247, “The structure of Egalitarian in complex with the K10 mRNA localization signal reveals a modular binding surface required for function”.
# T1: L-EHD (Egl743-819) (Drosophila melanogaster, UniProt Q9W1K4 743-819)
# T1 sequence: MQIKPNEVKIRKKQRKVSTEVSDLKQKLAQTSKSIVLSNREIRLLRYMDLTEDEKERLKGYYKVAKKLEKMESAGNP
# T2: L-Triple (Drosophila melanogaster, UniProt Q9W1K4 512-819, R753E;K754E;K755E)
# T2 sequence: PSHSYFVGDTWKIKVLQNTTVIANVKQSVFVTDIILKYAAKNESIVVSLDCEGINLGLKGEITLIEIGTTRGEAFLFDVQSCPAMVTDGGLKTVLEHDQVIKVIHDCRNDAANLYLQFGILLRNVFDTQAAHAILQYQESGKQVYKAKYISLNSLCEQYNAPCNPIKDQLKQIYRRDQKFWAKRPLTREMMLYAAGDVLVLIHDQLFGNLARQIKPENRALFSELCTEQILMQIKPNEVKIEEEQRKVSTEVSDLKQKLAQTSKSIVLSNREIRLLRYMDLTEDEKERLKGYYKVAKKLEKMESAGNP
# T3: Y685A (Drosophila melanogaster, UniProt Q9W1K4 512-819, Y685A)
# T3 sequence: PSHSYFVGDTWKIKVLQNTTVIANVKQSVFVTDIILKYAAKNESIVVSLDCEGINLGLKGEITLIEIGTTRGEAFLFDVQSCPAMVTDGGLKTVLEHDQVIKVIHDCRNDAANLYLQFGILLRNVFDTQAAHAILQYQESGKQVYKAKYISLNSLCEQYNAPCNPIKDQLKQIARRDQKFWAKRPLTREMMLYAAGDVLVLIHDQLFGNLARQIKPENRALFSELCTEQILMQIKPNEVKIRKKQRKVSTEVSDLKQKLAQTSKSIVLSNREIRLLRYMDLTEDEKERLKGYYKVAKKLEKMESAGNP
# What was measured:
# Test in all cases: fluorescence anisotropy; FA: 20 mM HEPES-NaOH pH 7.5, 100 mM NaCl, 10% glycerol, 20 C, 10 nM FAM-RNA; competition: 150 nM Egl512-819 + 10 nM FAM-K10 TLS, same buffer
# Settings in all cases: protein: recombinant; tags: N-terminal GST; label: 5'-6-FAM; hairpin with two bulges
# [1] = target: T1, L-EHD (Egl743-819)
# [2] = target: T2, L-Triple
# [3] = target: T3, Y685A
binder,measurement,setting,value
CUUGAUUGUAUUUUUAAAUUAAUUCUUAAAAACUACAAAUUAAG (structured_RNA) [K10 TLS (FAM)],Kd,[1],262 ± 9 nM
same,Kd,[2],1460 ± 302 nM
same,Kd,[3],221 ± 11 nM
